In patent publication US20250320281A1:

Tests used:
[1] = target: HIV-1 Env of pseudovirus MGRM-F1-013 (HIV-1); assay: cell-based or functional assay
[2] = target: HIV-1 Env of pseudovirus MGRM-AE-008 (clade CRF01_AE) (HIV-1); assay: cell-based or functional assay
[3] = target: HIV-1 Env of isolate 6535.3 (Acute), clade B, on pseudovirus (HIV-1); assay: cell-based or functional assay
[4] = target: HIV-1 envelope glycoprotein (Env) of isolate MGRM-A-013, clade A (HIV-1); assay: cell-based or functional assay
[5] = target: HIV-1 Env of pseudovirus 92TH021 (clade CRF01_AE) (HIV-1); assay: cell-based or functional assay
[6] = target: HIV-1 IAVI_C22 Env on pseudotyped virus (HIV-1 isolate IAVI_C22); assay: cell-based or functional assay
[7] = target: HIV-1 94UG103 Env on pseudotyped virus (HIV-1 isolate 94UG103); assay: cell-based or functional assay
[8] = target: HIV-1 93IN905 Env on pseudotyped virus (HIV-1 isolate 93IN905); assay: cell-based or functional assay
[9] = target: HIV-1 NL43 Env on pseudotyped virus (HIV-1 NL43); assay: cell-based or functional assay
[10] = target: HIV-1 JR-CSF Env on pseudotyped virus (HIV-1 isolate JR-CSF) (UniProt P20871); assay: cell-based or functional assay
[11] = target: HIV-1 Env of isolate MGRM-AE-007 (HIV-1); assay: cell-based or functional assay
[12] = target: HIV-1 Env of isolate MGRM-Chronic-B-003 (subtype B pseudovirus) (HIV-1); assay: cell-based or functional assay
[13] = target: JR-FL gp120 ΔV1/ΔV2 (HIV-1); assay: ELISA, antigen-coated wells
[14] = target: HIV-1 Env of isolate 94 KE 105 (subtype AC) (HIV-1); assay: cell-based or functional assay
[15] = target: HIV-1 Env of isolate 92UG037 (subtype A) (HIV-1); assay: cell-based or functional assay
[16] = target: HIV-1 envelope glycoprotein (Env) of isolate MGRM-Chronic-B-002 (HIV-1); assay: cell-based or functional assay
[17] = target: HIV-1 Env of isolate 92WR020 (subtype A) (HIV-1); assay: cell-based or functional assay
[18] = target: HIV-1 Env of isolate 92WR021 (subtype A) (HIV-1); assay: cell-based or functional assay
[19] = target: HIV-1 92BR020 Env (pseudovirus) (HIV-1); assay: cell-based or functional assay
[20] = target: HIV-1 Env of isolate 93WR029 (subtype A) (HIV-1); assay: cell-based or functional assay
[21] = target: HIV-1 Env of isolate 92UG031 (subtype A) (HIV-1); assay: cell-based or functional assay
[22] = target: HIV-1 envelope glycoprotein (Env) of isolate 6535.3 (HIV-1); assay: cell-based or functional assay
[23] = target: HIV-1 envelope glycoprotein (Env) of isolate MGRM-Chronic-B-004 (HIV-1); assay: cell-based or functional assay
[24] = target: HIV-1 Env of isolate 92WR026 (subtype A) (HIV-1); assay: cell-based or functional assay
[25] = target: HIV-1 Env of isolate MGRM-G-013 (HIV-1); assay: cell-based or functional assay
[26] = target: HIV-1 envelope glycoprotein (Env) of isolate 92BR020 (HIV-1); assay: cell-based or functional assay
[27] = target: HIV-1 envelope glycoprotein (Env) of isolate MGRM-Chronic-B-008 (HIV-1); assay: cell-based or functional assay
[28] = target: HIV-1 envelope glycoprotein (Env) of isolate JR-FL (HIV-1); assay: cell-based or functional assay
[29] = target: HIV-1 envelope glycoprotein (Env) of isolate APV_6 (HIV-1); assay: cell-based or functional assay
[30] = target: HIV-1 Env of isolate 92WR009 (subtype A) (HIV-1); assay: cell-based or functional assay
[31] = target: HIV-1 envelope glycoprotein (Env) of isolate MGRM-Chronic-B-003 (HIV-1); assay: cell-based or functional assay
[32] = target: HIV-1 Env of isolate 92RW008 (subtype A) (HIV-1); assay: cell-based or functional assay
[33] = target: HIV-1 envelope glycoprotein (Env) of isolate MGRM-Chronic-B-001 (HIV-1); assay: cell-based or functional assay

Sequence of 1443_C16 (PG16) (TCN-116) (antibody) (VH): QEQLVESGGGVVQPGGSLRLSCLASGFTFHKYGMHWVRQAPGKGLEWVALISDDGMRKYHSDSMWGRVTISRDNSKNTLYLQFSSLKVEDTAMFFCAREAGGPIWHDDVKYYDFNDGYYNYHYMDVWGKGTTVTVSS
Sequence of 1443_C16 (PG16) (TCN-116) (antibody) (VL): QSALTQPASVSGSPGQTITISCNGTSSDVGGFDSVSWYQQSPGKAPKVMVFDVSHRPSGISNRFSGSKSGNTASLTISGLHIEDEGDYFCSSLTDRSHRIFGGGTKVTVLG
Sequence of 4970_K22 (PGT-144) (antibody) (VH): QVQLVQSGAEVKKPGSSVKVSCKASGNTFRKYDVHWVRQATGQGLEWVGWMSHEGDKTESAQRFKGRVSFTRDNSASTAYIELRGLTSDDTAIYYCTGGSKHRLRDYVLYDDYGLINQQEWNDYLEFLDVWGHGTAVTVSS
Sequence of 4970_K22 (PGT-144) (antibody) (VL): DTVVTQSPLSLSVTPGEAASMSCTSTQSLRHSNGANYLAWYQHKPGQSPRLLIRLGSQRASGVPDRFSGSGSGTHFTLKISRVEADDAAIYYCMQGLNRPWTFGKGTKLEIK

For 2F5 (antibody), the IC50 (µg/ml), pseudovirus neutralization [1] was 4.57 µg/mL, the IC50 [2] was over 50 µg/mL and the IC50 (µg/ml), pseudovirus neutralization [3] was 2.76 µg/mL. The IC50 (µg/ml), pseudovirus neutralization [4] was 0.66 µg/mL.
For 2G12 (antibody), the IC50 (µg/ml), pseudovirus neutralization [1] was over 50 µg/mL, the IC50 [5] was over 50 µg/mL and the IC50 [2] was over 50 µg/mL. For the same substance, the IC50 (µg/ml), pseudovirus neutralization [3] was 3.85 µg/mL and the IC50 (µg/ml), pseudovirus neutralization [4] was over 50 µg/mL.
4E10 (antibody) gave an IC50 [5] of 1.17 µg/mL, an IC50 [2] of 0.94 µg/mL and an IC50 (µg/ml), pseudovirus neutralization [3] of 1.23 µg/mL. For the same substance, the IC50 (µg/ml), pseudovirus neutralization [4] was 1.46 µg/mL.
1443_C16 (PG16) (TCN-116) (antibody) was tested, and the Neutralizing Antibody Assay: IC50; Virus/Ab Incubation 1 hour [6] was 0.114 µg/mL, the Neutralizing Antibody Assay: IC50; Virus/Ab Incubation 18 hour [6] was 0.106 µg/mL and the IC50 [5] was 0.1 µg/mL. It also gave a Neutralizing Antibody Assay: IC50; Virus/Ab Incubation 1 hour [7] of 0.0211 µg/mL, a Neutralizing Antibody Assay: IC50; Virus/Ab Incubation 18 hour [7] of 0.0085 µg/mL and a Neutralizing Antibody Assay: IC50; Virus/Ab Incubation 1 hour [8] of 0.33 µg/mL. The Neutralizing Antibody Assay: IC50; Virus/Ab Incubation 18 hour [8] was 0.255 µg/mL, the IC50 [2] was 3.25 µg/mL and the Neutralizing Antibody Assay: IC50; Virus/Ab Incubation 1 hour [9] was under 0.0025 µg/mL. The Neutralizing Antibody Assay: IC50; Virus/Ab Incubation 18 hour [9] was 4.99 µg/mL, the IC50 (µg/ml), pseudovirus neutralization [3] was 36.9 µg/mL and the IC50 (µg/ml), pseudovirus neutralization [4] was 0.09 µg/mL. For the same substance, the Neutralizing Antibody Assay: IC50; Virus/Ab Incubation 1 hour [10] was under 0.0025 µg/mL and the Neutralizing Antibody Assay: IC50; Virus/Ab Incubation 18 hour [10] was under 0.0025 µg/mL.
In the case of 1495_C14 (PGC14) (antibody), the IC50 (µg/ml), pseudovirus neutralization [1] is reported as 6 µg/mL, the Neutralizing Antibody Assay: IC50; Virus/Ab Incubation 1 hour [6] is reported as over 50 µg/mL and the Neutralizing Antibody Assay: IC50; Virus/Ab Incubation 18 hour [6] is reported as 13.4 µg/mL. It also gave an IC50 [5] of over 50 µg/mL, a Neutralizing Antibody Assay: IC50; Virus/Ab Incubation 1 hour [7] of over 50 µg/mL and a Neutralizing Antibody Assay: IC50; Virus/Ab Incubation 18 hour [7] of over 50 µg/mL. The Neutralizing Antibody Assay: IC50; Virus/Ab Incubation 1 hour [8] was over 50 µg/mL, the Neutralizing Antibody Assay: IC50; Virus/Ab Incubation 18 hour [8] was 0.146 µg/mL and the IC50 [2] was over 50 µg/mL. The Neutralizing Antibody Assay: IC50; Virus/Ab Incubation 1 hour [9] was 0.35 µg/mL, the Neutralizing Antibody Assay: IC50; Virus/Ab Incubation 18 hour [9] was 0.15 µg/mL and the IC50 (µg/ml), pseudovirus neutralization [3] was 35 µg/mL. It also gave an IC50 (µg/ml), pseudovirus neutralization [4] of over 50 µg/mL, a Neutralizing Antibody Assay: IC50; Virus/Ab Incubation 1 hour [10] of over 50 µg/mL and a Neutralizing Antibody Assay: IC50; Virus/Ab Incubation 18 hour [10] of over 50 µg/mL.
1496_C09 (PG9) (TCN-109) (antibody) was tested, and the IC50 (µg/ml), pseudovirus neutralization [1] was 0.56 µg/mL, the Neutralizing Antibody Assay: IC50; Virus/Ab Incubation 1 hour [6] was 24.9 µg/mL and the Neutralizing Antibody Assay: IC50; Virus/Ab Incubation 18 hour [6] was 2.11 µg/mL. The IC50 [5] was 0.09 µg/mL, the Neutralizing Antibody Assay: IC50; Virus/Ab Incubation 1 hour [7] was 0.334 µg/mL and the Neutralizing Antibody Assay: IC50; Virus/Ab Incubation 18 hour [7] was 0.0942 µg/mL. For the same substance, the Neutralizing Antibody Assay: IC50; Virus/Ab Incubation 1 hour [8] was 0.144 µg/mL, the Neutralizing Antibody Assay: IC50; Virus/Ab Incubation 18 hour [8] was 0.0619 µg/mL and the IC50 [2] was 10.6 µg/mL. The Neutralizing Antibody Assay: IC50; Virus/Ab Incubation 1 hour [9] was 0.294 µg/mL, the Neutralizing Antibody Assay: IC50; Virus/Ab Incubation 18 hour [9] was 38 µg/mL and the IC50 (µg/ml), pseudovirus neutralization [3] was 0.22 µg/mL. It also gave an IC50 (µg/ml), pseudovirus neutralization [4] of 0.16 µg/mL, a Neutralizing Antibody Assay: IC50; Virus/Ab Incubation 1 hour [10] of under 0.0025 µg/mL and a Neutralizing Antibody Assay: IC50; Virus/Ab Incubation 18 hour [10] of under 0.0025 µg/mL.
Work on 4838_L06 (PGT-121) (antibody) yielded an IC50 [11] of over 50 µg/mL, an IC50 (µg/mL), pseudovirus neutralization [12] of 0.011 µg/mL and an EC50 [13] of 0.2 µg/mL.
Substance 4970_K22 (PGT-144) (antibody) has an IC50 (µg/mL), pseudovirus neutralization [14] of 0.29 µg/mL, an IC50 (µg/mL), pseudovirus neutralization [15] of 8.24 µg/mL and an IC50 (µg/mL), pseudovirus neutralization [16] of over 50 µg/mL. It also gave an IC50 (µg/mL), pseudovirus neutralization [17] of over 50 µg/mL, an IC50 (µg/mL), pseudovirus neutralization [18] of over 50 µg/mL and a neutralization IC50 (pseudovirus) [19] of over 10 µg/mL. For the same substance, the IC50 (µg/mL), pseudovirus neutralization [20] was 4.39 µg/mL, the IC50 (µg/mL), pseudovirus neutralization [21] was 2.17 µg/mL and the IC50 (µg/mL), pseudovirus neutralization [22] was over 50 µg/mL. It also gave an IC50 (µg/mL), pseudovirus neutralization [23] of 9.41 µg/mL, an IC50 (µg/mL), pseudovirus neutralization [24] of 32.7 µg/mL and an IC50 (µg/mL), pseudovirus neutralization [25] of over 50 µg/mL. For the same substance, the IC50 (µg/mL), pseudovirus neutralization [26] was 44 µg/mL, the IC50 (µg/mL), pseudovirus neutralization [27] was over 50 µg/mL and the IC50 (µg/mL), pseudovirus neutralization [28] was over 50 µg/mL. The IC50 (µg/mL), pseudovirus neutralization [29] was over 50 µg/mL, the IC50 (µg/mL), pseudovirus neutralization [30] was 0.893 µg/mL and the IC50 (µg/mL), pseudovirus neutralization [31] was 7.41 µg/mL. It also gave an IC50 (µg/mL), pseudovirus neutralization [32] of over 50 µg/mL and an IC50 (µg/mL), pseudovirus neutralization [33] of over 50 µg/mL.
